This passage reports self-cleavage results from the RNAGym collection of RNA variant scans (doi:10.7554/elife.80360).

B1: CPEB3 Ribozyme (parent)
chain: GGGGGCCACAGCAGAAGCGUUCACGUCGCGGCCCCUGUCAGAUUCUGGUGAAUCUGCGAAUUCUGCUGU

This data set covers variants of B1. The experiment in a line: self-cleavage, relative activity (ratio to wild type); higher = more cleavage; co-transcriptional.
With G58C C63A, the self-cleavage came out at 0.906.
With G58C C63U, the self-cleavage came to 0.997.
G58C C63G: the self-cleavage was found to be 0.823.
To A59G U61C belongs 0.785; to A60U G65U, 0.43; to A60U G65A, 0.527.
U61A C66A: the self-cleavage came to 0.386.
U61A C66G: the self-cleavage was 0.44.
To A59C G65C belongs 0.374; to U61G U64A, 0.555; to U61G U64G, 0.397.
For G58U A60G, the self-cleavage was 0.977.
Turning to G58U A60U, the self-cleavage is 0.331.
As to C57A U62C, the self-cleavage was 0.339.
C57A U62G: the self-cleavage is 0.409.
As for G58C U69A, the self-cleavage stood at 0.998.
With G58C U69G, the self-cleavage came out at 1.05.
G58C U67A: the self-cleavage worked out at 0.988.
Turning to G58C U67C, the self-cleavage came out at 0.961.
In the case of U61G C63G, the self-cleavage turned out to be 0.396.
As to U61G C63U, the self-cleavage was 0.57.
For U61G C63A, the self-cleavage was found to be 0.673.
For C57G G58U, the self-cleavage is 0.463.
To C57G G58A belongs 0.377.
The result for C57G G58C reads 0.356; that for U61C G65U, 0.292; that for U61C G65C, 0.339.
On to G58A A59C, for which the self-cleavage is 0.558.
Consider G58A A59U, for which the self-cleavage was found to be 0.592.
With G58A A59G, the self-cleavage was determined as 0.949.
As to A60G G68U, the self-cleavage came to 0.954.
For the variant U62A U64C, the self-cleavage worked out at 0.61.
As for U62A U64A, the self-cleavage came out at 0.452.
As to G58U U61G, the self-cleavage worked out at 0.908.
Consider G58U U61C, for which the self-cleavage stood at 0.892.
On to C57A G58A, for which the self-cleavage amounted to 0.313.
Turning to C57A G58U, the self-cleavage is 0.367.
For the variant C57G A60U, the self-cleavage came out at 0.291.
To C57G A60G belongs 0.294; to G58A C63G, 0.757.
For the variant G58A C63U, the self-cleavage was determined as 0.957.
The result for A59C C63A reads 0.43; that for A59U U64A, 0.459; that for A59U U64C, 0.558.
With A59U U64G, the self-cleavage was found to be 0.729.
In the case of G58A C66A, the self-cleavage came to 0.81.
Regarding G58A C66U, the self-cleavage stood at 0.938.
In the case of G58A C66G, the self-cleavage was 0.881.
To A60G U67G belongs 0.902; to A60G U67C, 0.747.
With A59G U64A, the self-cleavage is 0.861.
For A59G U64C, the self-cleavage was 0.873.
A59G U62G: the self-cleavage amounted to 0.944.
In the case of A59G U62C, the self-cleavage came out at 0.717.
As to G58C A60G, the self-cleavage amounted to 0.683.
On to G58C A60C, for which the self-cleavage came out at 0.359.
In the case of U61G C66A, the self-cleavage is 0.495.
To U61G C66G belongs 0.538; to G58C U64C, 0.777; to G58C U64A, 0.955.
The result for G58A G68A reads 0.944; that for G56U U64C, 0.762; that for C57G U61G, 0.439.
Take C57G U61A: the self-cleavage stood at 0.399.
Turning to C57G U61C, the self-cleavage was 0.377.
On to G58C G68U, for which the self-cleavage worked out at 1.02.
For G58C G68A, the self-cleavage amounted to 1.
Take G58C G68C: the self-cleavage was 0.963.
Turning to A59C G68U, the self-cleavage was determined as 0.939.
The result for A59C G68A reads 0.908; that for C57U U69G, 0.473.
With C57U U69A, the self-cleavage is 0.478.
Consider U61G U67A, for which the self-cleavage is 0.841.
In the case of U61G U67C, the self-cleavage amounted to 0.708.
On to G56U U69C, for which the self-cleavage worked out at 1.04.
On to G56U U69A, for which the self-cleavage is 1.
With A60C U61A, the self-cleavage was 0.472.
With A60C U61G, the self-cleavage turned out to be 0.3.
On to U62C C63U, for which the self-cleavage worked out at 0.795.
For U62C C63G, the self-cleavage amounted to 0.545.
To A59G G68A belongs 1; to A59G G68U, 1.02.
Turning to C57G G68A, the self-cleavage amounted to 0.374.
Take C57G G68C: the self-cleavage worked out at 0.388.
For U61A G65C, the self-cleavage was found to be 0.542.
On to U61A G65A, for which the self-cleavage is 0.519.
U61A G65U: the self-cleavage worked out at 0.459.
As for C57G G65A, the self-cleavage worked out at 0.37.
To C57G G65U belongs 0.254; to C57G G65C, 0.428.
Turning to C57A A59G, the self-cleavage worked out at 0.426.
The result for C57A A59U reads 0.46.
Regarding A60C C63U, the self-cleavage worked out at 0.468.
On to A60C C63G, for which the self-cleavage was found to be 0.344.
The result for U61C U67C reads 0.764.
Consider U61C U67A, for which the self-cleavage was determined as 0.741.
A59G C63A: the self-cleavage stood at 0.857.
As to A59G C63G, the self-cleavage is 0.691.
The result for A60G U61A reads 0.632.
As to A60G U61G, the self-cleavage amounted to 0.533.
With C57U U64G, the self-cleavage came out at 0.365.
Turning to A60U U62A, the self-cleavage was 0.551.
As to A60U U62C, the self-cleavage amounted to 0.492.
As for U62A U67A, the self-cleavage was determined as 0.924.
With U62A U67C, the self-cleavage turned out to be 0.908.
A59U A60G: the self-cleavage turned out to be 0.56.
The result for A59U A60C reads 0.343.
The result for A59U A60U reads 0.312; that for U61G G68U, 0.826.
For U61G G68A, the self-cleavage turned out to be 0.988.
In the case of U61G G68C, the self-cleavage was found to be 0.867.
On to C57U G68U, for which the self-cleavage is 0.416.
As for C57U G68A, the self-cleavage worked out at 0.395.
A59U U67C: the self-cleavage amounted to 0.867.
As for A59U U67A, the self-cleavage came to 0.805.
For the variant U61C U69C, the self-cleavage worked out at 1.02.
With U61C U69G, the self-cleavage is 0.974.
With A59G C66G, the self-cleavage turned out to be 0.893.
For A59G C66A, the self-cleavage worked out at 0.779.
With G58U G65C, the self-cleavage came to 0.863.
Turning to A59U G65C, the self-cleavage turned out to be 0.497.
Consider A59U G65A, for which the self-cleavage stood at 0.531.
As for A59U G65U, the self-cleavage was 0.329.
Take C57G U69C: the self-cleavage was found to be 0.451.
With C57U C66G, the self-cleavage is 0.317.
C57U C66A: the self-cleavage was 0.316.
Consider G56U U61A, for which the self-cleavage came out at 0.752.
G56U G68U: the self-cleavage worked out at 0.985.
Consider G58A U67A, for which the self-cleavage came out at 0.968.
To G58A U67C belongs 0.993.
The result for A59U U61A reads 0.443; that for A59U U61G, 0.512; that for A59U U61C, 0.358.
A60U U69C: the self-cleavage was 0.754.
Consider A60U U69G, for which the self-cleavage turned out to be 0.614.
A60C U69C: the self-cleavage came to 0.627.
The result for G58C U62A reads 0.918; that for G58C U62C, 0.902; that for A60G C63G, 0.545.
Take A60G C63U: the self-cleavage is 0.867.
As to A60G C63A, the self-cleavage is 0.429.
For the variant U61A U62C, the self-cleavage was found to be 0.829.
With U61A U62G, the self-cleavage is 0.646.
To A59C C66A belongs 0.365; to A59C C66G, 0.441; to U62A C66A, 0.499.
Regarding U62A C66G, the self-cleavage was found to be 0.458.
G58U U67C: the self-cleavage came out at 1.01.
On to G58U U67A, for which the self-cleavage amounted to 0.982.
Take G58U U67G: the self-cleavage came to 1.02.
On to C57G C63A, for which the self-cleavage was found to be 0.291.
As to U62A G65A, the self-cleavage was 0.546.
Regarding A60G G65U, the self-cleavage stood at 0.412.
With A60G G65A, the self-cleavage was 0.373.
To G58U G68U belongs 0.966.
Take G58U G68A: the self-cleavage amounted to 0.993.
Take G58U G68C: the self-cleavage was 1.03.
As to C57G C66A, the self-cleavage turned out to be 0.308.
On to A60U C63U, for which the self-cleavage stood at 0.479.
In the case of A60U C63G, the self-cleavage was found to be 0.38.
For the variant A60U C63A, the self-cleavage amounted to 0.391.
With A60U U61G, the self-cleavage was found to be 0.556.
A60U U61C: the self-cleavage is 0.629.
In the case of G58U A59C, the self-cleavage was 0.8.
In the case of G58U A59U, the self-cleavage turned out to be 0.749.
To U61C C63U belongs 0.425; to U61C C63A, 0.651.
